How the values were obtained:
[1] = Relaxivity of the conjugates in plasma; format: physicochemical; conditions: +37° C., 20 MHz, relaxivity per mol of gadolinium calculated from the measured values
Protocol: (§1) As comparison substances, Gd-DTPA (1) with the formula: [drawing 16] and Gd-GlyMeDOTA (2) with the formula: [drawing 17] which were reacted in each case with bovine serum albumin (BSA), were used.
(§2) The measurements were made in each case in aqueous solution and in plasma at +37° C. and a frequency of 20 MHz. The results are summarized in Table 2 below, whereby the indicated relaxivities per mol of gadolinium were calculated from the measured values: […]

[2] = Relaxivity of the conjugates in aqueous solution; format: physicochemical; conditions: +37° C., 20 MHz, relaxivity per mol of gadolinium calculated from the measured values
Protocol: as §1, §2

Substance: Gd-GlyMeDOTA [Vergleichssubstanz 2]
- R1 (Plasma) [1]: 20.8 L/mmol/s
- R1 (H2O) [2]: 18.3 L/mmol/s
